Test in all cases: ITC
The target in experiment [1] is T1, Ankyrin-G ANK repeats 8-14 (UniProt O70511 275-500).
T1 chain: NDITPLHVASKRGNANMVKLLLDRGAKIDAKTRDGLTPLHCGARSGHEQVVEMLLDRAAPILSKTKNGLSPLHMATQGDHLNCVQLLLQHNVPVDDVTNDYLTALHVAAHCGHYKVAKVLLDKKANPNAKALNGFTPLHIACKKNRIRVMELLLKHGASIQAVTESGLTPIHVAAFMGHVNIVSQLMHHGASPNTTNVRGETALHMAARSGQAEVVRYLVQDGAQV

Another experiment concerns the target T2, AnkG R6-24 (Rattus norvegicus).
T2 chain: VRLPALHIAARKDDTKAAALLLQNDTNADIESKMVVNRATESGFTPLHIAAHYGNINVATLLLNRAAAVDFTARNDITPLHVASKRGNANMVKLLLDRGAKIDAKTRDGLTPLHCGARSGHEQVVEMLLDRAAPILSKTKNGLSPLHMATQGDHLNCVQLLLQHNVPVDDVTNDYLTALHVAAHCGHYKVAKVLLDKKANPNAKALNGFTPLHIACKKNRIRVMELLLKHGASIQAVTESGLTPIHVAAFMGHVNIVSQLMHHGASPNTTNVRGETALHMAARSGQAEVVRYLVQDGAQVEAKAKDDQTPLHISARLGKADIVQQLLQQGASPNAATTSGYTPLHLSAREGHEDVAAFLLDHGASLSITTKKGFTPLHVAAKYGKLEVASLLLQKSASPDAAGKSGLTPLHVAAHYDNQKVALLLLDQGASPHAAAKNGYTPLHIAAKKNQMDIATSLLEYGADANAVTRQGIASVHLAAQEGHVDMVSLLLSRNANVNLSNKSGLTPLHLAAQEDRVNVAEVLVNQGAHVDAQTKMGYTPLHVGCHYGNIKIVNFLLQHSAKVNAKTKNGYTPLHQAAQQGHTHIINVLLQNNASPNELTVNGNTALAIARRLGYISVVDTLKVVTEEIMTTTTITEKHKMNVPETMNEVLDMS

In another experiment the target is T3, p120 catenin 324-938 (mouse, UniProt P30999 324-938).
T3 chain: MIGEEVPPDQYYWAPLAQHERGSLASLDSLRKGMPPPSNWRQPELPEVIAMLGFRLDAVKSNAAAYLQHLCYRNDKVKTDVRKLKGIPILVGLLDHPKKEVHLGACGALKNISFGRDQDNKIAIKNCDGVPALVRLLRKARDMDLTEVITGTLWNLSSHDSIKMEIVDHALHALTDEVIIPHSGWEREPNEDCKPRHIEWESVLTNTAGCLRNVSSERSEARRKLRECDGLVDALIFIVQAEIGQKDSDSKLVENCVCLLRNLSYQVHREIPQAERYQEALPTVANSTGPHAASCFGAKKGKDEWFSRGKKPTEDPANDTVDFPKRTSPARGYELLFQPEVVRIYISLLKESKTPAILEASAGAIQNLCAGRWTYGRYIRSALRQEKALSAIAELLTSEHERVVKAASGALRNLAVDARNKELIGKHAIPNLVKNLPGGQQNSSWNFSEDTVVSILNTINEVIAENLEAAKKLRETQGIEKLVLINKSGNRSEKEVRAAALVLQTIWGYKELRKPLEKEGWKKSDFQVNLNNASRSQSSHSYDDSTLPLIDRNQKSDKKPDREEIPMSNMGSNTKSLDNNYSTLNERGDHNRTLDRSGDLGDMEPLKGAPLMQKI

For experiment [2], the target named is T4, full-length β-catenin 1-781 (mouse, UniProt Q02248 1-781).
T4 chain: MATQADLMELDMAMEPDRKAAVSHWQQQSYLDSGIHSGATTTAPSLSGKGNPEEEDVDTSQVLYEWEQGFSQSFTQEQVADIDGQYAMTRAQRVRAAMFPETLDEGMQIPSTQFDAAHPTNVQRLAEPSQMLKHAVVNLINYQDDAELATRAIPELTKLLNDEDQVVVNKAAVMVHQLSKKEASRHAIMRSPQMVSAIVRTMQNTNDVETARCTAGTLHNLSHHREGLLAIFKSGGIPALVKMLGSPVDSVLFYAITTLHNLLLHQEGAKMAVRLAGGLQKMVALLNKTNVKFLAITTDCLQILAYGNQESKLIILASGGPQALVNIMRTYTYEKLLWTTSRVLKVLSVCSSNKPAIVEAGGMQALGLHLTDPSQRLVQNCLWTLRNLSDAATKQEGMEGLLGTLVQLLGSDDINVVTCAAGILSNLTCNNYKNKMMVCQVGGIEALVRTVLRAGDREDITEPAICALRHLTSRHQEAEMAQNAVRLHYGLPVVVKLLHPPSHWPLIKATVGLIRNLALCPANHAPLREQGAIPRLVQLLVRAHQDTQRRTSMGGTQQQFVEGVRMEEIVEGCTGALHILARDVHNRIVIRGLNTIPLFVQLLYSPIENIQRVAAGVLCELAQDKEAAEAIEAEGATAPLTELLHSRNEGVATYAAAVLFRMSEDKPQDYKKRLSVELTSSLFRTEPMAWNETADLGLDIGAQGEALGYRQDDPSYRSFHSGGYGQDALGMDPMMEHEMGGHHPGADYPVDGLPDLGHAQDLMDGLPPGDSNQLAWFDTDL

For experiment [3], the target named is T5, Ankyrin-G 24 ANK repeats (residues 38-855) (UniProt O70511 38-855).
T5 chain: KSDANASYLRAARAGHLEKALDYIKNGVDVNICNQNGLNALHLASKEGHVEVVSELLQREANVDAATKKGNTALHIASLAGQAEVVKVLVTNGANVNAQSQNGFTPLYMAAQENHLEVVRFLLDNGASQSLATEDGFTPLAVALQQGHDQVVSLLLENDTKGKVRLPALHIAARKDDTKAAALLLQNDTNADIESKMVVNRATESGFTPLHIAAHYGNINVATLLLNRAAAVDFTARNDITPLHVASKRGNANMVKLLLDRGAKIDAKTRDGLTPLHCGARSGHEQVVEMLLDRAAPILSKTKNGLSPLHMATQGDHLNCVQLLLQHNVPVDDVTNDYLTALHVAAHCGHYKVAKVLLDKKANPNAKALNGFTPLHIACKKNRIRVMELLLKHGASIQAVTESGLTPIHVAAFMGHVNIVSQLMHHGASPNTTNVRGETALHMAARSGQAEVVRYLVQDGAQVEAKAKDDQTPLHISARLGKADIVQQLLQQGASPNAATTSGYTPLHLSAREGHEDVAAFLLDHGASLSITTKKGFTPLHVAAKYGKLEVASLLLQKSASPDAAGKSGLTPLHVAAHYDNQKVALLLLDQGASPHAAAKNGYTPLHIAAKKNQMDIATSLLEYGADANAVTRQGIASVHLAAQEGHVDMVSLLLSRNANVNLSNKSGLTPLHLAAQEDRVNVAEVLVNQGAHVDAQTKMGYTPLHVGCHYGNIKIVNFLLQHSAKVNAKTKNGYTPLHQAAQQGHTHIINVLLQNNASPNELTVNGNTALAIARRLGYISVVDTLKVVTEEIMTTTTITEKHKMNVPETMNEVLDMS

Experiment [4] concerns the target T4, full-length β-catenin 1-781.
Experiment [5] shares this target.

Where two headings read alike, the source gives them in different places.

B1: E-cadherin C-terminal domain (residues 734-884) (domain or fragment)
chain: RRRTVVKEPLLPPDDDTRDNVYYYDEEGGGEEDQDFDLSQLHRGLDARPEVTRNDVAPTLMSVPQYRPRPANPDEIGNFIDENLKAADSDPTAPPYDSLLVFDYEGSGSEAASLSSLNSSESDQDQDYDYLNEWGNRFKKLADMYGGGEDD
In the case of B1, the Kd in experiment [1] came to 5 µM; with AnkG R6-24, 2.9 µM; with p120 catenin 324-938 it was 1.7 µM; in experiment [2] it was 0.036 µM; in experiment [3], 2.8 µM.

B2: E-cadherin 776-884–AnkG R1-24 complex (complex)
chain 1: not shown
chain 2: KSDANASYLRAARAGHLEKALDYIKNGVDVNICNQNGLNALHLASKEGHVEVVSELLQREANVDAATKKGNTALHIASLAGQAEVVKVLVTNGANVNAQSQNGFTPLYMAAQENHLEVVRFLLDNGASQSLATEDGFTPLAVALQQGHDQVVSLLLENDTKGKVRLPALHIAARKDDTKAAALLLQNDTNADIESKMVVNRATESGFTPLHIAAHYGNINVATLLLNRAAAVDFTARNDITPLHVASKRGNANMVKLLLDRGAKIDAKTRDGLTPLHCGARSGHEQVVEMLLDRAAPILSKTKNGLSPLHMATQGDHLNCVQLLLQHNVPVDDVTNDYLTALHVAAHCGHYKVAKVLLDKKANPNAKALNGFTPLHIACKKNRIRVMELLLKHGASIQAVTESGLTPIHVAAFMGHVNIVSQLMHHGASPNTTNVRGETALHMAARSGQAEVVRYLVQDGAQVEAKAKDDQTPLHISARLGKADIVQQLLQQGASPNAATTSGYTPLHLSAREGHEDVAAFLLDHGASLSITTKKGFTPLHVAAKYGKLEVASLLLQKSASPDAAGKSGLTPLHVAAHYDNQKVALLLLDQGASPHAAAKNGYTPLHIAAKKNQMDIATSLLEYGADANAVTRQGIASVHLAAQEGHVDMVSLLLSRNANVNLSNKSGLTPLHLAAQEDRVNVAEVLVNQGAHVDAQTKMGYTPLHVGCHYGNIKIVNFLLQHSAKVNAKTKNGYTPLHQAAQQGHTHIINVLLQNNASPNELTVNGNTALAIARRLGYISVVDTLKVVTEEIMTTTTITEKHKMNVPETMNEVLDMS
As to B2, the Kd in experiment [4] was found to be 0.08 µM.

B3: E-cadherin CTD–AnkG R1-24 complex (complex)
chain 1: not shown
chain 2: KSDANASYLRAARAGHLEKALDYIKNGVDVNICNQNGLNALHLASKEGHVEVVSELLQREANVDAATKKGNTALHIASLAGQAEVVKVLVTNGANVNAQSQNGFTPLYMAAQENHLEVVRFLLDNGASQSLATEDGFTPLAVALQQGHDQVVSLLLENDTKGKVRLPALHIAARKDDTKAAALLLQNDTNADIESKMVVNRATESGFTPLHIAAHYGNINVATLLLNRAAAVDFTARNDITPLHVASKRGNANMVKLLLDRGAKIDAKTRDGLTPLHCGARSGHEQVVEMLLDRAAPILSKTKNGLSPLHMATQGDHLNCVQLLLQHNVPVDDVTNDYLTALHVAAHCGHYKVAKVLLDKKANPNAKALNGFTPLHIACKKNRIRVMELLLKHGASIQAVTESGLTPIHVAAFMGHVNIVSQLMHHGASPNTTNVRGETALHMAARSGQAEVVRYLVQDGAQVEAKAKDDQTPLHISARLGKADIVQQLLQQGASPNAATTSGYTPLHLSAREGHEDVAAFLLDHGASLSITTKKGFTPLHVAAKYGKLEVASLLLQKSASPDAAGKSGLTPLHVAAHYDNQKVALLLLDQGASPHAAAKNGYTPLHIAAKKNQMDIATSLLEYGADANAVTRQGIASVHLAAQEGHVDMVSLLLSRNANVNLSNKSGLTPLHLAAQEDRVNVAEVLVNQGAHVDAQTKMGYTPLHVGCHYGNIKIVNFLLQHSAKVNAKTKNGYTPLHQAAQQGHTHIINVLLQNNASPNELTVNGNTALAIARRLGYISVVDTLKVVTEEIMTTTTITEKHKMNVPETMNEVLDMS
In experiment [5], B3 came in with a Kd of 0.098 µM.

The term Kd denotes the concentration at which binding is half-saturated.
